Source: patent US20260234255A1 (Genmab, published 2026)
Residue numbers refer to the chain shown, from its start. Names may count otherwise.

What was measured:
[1] = biological target: T1, cynomolgus monkey (Macaca fascicularis) CD30 (cynomolgus monkey, UniProt P28908 19-595 (human entry)); assay: flow cytometry, Expi293F cells transfected with cynomolgus monkey CD30 (mfCD30)
T1 construct: also called mfCD30
T1 chain: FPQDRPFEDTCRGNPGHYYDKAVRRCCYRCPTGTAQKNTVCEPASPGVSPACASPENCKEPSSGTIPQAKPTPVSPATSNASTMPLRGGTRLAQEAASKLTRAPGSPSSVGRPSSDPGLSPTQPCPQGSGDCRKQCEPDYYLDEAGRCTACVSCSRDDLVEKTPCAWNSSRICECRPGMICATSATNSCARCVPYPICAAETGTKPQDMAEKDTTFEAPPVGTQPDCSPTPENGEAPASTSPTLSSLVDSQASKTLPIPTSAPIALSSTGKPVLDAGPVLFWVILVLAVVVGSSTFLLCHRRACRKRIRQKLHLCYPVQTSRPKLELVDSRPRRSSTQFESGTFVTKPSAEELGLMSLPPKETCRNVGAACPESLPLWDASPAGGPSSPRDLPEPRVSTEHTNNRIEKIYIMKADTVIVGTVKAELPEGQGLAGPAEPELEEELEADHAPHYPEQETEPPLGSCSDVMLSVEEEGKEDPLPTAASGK
Protocol: Cells (3×10⁴ cells/well) were incubated in polystyrene 96-well round-bottom plates (Greiner bio-one, cat. no. 650180) with serial dilutions of antibodies (ranging from 0.005 to 10 μg/mL in 3-fold dilution steps) in 100 μL staining buffer at 4° C. for 30 min. Experiments were performed in technical duplicate. After washing twice in staining buffer, cells were incubated in 50 μL secondary antibody at 4° C. for 30 min. As a secondary antibody, R-PE-conjugated goat-anti-human IgG (Jackson ImmunoResearch, UK; cat. no. 109⁻¹¹⁶-098) diluted 1:400 in staining buffer was used. Cells were washed twice in staining buffer, resuspended in 30 μL staining buffer containing 0.4% EDTA and analyzed on an iQue Screener (Intellicyt Corporation, USA). Binding curves were analyzed using non-linear regression (sigmoidal dose-response with variable slope) using GraphPad Prism V9.0.0 software (GraphPad Software, San Diego, CA, USA).

human CD30 [2] = biological target: T2, human CD30 (human, UniProt P28908 19-595); assay: flow cytometry, Expi293F cells transfected with human CD30
T2 construct: The same molecule is used for CD30 on HL/ALCL/NHL cell lines; also called huCD30; TNFRSF8
T2 sequence: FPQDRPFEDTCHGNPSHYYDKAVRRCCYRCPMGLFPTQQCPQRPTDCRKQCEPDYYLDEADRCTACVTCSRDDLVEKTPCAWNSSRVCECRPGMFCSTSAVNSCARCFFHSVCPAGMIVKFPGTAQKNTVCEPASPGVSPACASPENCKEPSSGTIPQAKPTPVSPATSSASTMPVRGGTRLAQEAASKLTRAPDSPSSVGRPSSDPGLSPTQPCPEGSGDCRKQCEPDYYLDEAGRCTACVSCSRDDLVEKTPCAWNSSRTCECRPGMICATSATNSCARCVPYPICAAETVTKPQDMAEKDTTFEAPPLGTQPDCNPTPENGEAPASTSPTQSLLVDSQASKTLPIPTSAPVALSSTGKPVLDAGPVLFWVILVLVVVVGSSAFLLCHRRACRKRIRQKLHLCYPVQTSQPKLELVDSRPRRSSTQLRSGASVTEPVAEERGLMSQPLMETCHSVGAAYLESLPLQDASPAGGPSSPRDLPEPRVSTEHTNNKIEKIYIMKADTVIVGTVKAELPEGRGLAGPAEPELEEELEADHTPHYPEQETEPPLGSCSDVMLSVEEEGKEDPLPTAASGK
Protocol: Data are presented as mean fluorescence intensity (MFI) values as determined by flow cytometry of two technical replicates. […] Data are presented as mean fluorescence intensity (MFI) values as determined by flow cytometry of one representative experiment.
Binding of bispecific CD3×CD30 antibodies and monospecific, bivalent CD30 antibodies to the plasma membrane of Expi293 cells transiently transfected with human CD30 or cynomolgus monkey CD30 was analyzed by flow cytometry.

human CD30 [3] = biological target: T2, human CD30; assay: flow cytometry, HDLM-2 cells
Summary of the method: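 CD3×CD30 bispecific antibodies, 3-fold serial dilutions from 0.0046 to 10 μg/mL, incubated with 3×10⁴ SU-DHL-1 (ALCL) or HDLM-2 (HL) cells for 30 min at 4 °C, then secondary antibody 30 min at 4 °C. Live cells gated by FSC/SSC and TO-PRO-3 exclusion; binding curves fitted by four-parameter sigmoidal regression.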

cynomolgus monkey CD3 = biological target: T3, cynomolgus monkey CD3 (cynomolgus monkey, UniProt Q95LI5 22-198); assay: flow cytometry, cynomolgus monkey T cells (PBMCs)
T3 construct: CD3 endogenously expressed on T cells within cynomolgus monkey PBMCs
Protocol: (§1) Cynomolgus monkey PBMCs (Tebu-Bio, The Netherlands; cat. no. PBMCMFA-10) or purified human T cells were plated in polystyrene 96-well round-bottom plates. T cells were derived from human donor buffy coats (Sanquin, Amsterdam, The Netherlands) and isolated using the RosetteSep human T cell enrichment cocktail (Stemcell Technologies, France, cat. no. 15061) according to manufacturer's instructions. […] After washing twice in staining buffer, cells were incubated in 50 μL secondary R-PE-conjugated goat-anti-human IgG antibody at 4° C. for 30 min (1:400 dilution). After washing twice in staining buffer, T cells were stained for T-cell markers CD3 (1:100; Miltenyi biotec, clone 10D12, conjugated to APC), CD4 (1:50; eBioscience, clone OKT4, conjugated to APC-Cy7), CD8 (1:100; Biolegend, clone RPA-T8, conjugated to AF700) and T-cell activation markers CD69 (1:50; BD Biosciences, clone AB2439, conjugated to FITC), CD25 (1:50; eBioscience, clone BC96, conjugated to PE-Cy7) and CD279/PD1 (1:50; BD Biosciences, clone AEH12.2H7, conjugated to BV605). Single stained samples with Ultracomp beads (5 μL; Invitrogen, cat. no. 01-2222-42) were used for compensation adjustments of the flow cytometer. After 30 min of incubation at 4° C., cells were washed twice with staining buffer, resuspended in 100 μL staining buffer and analyzed using a FACS Fortessa (BD Biosciences). Data were processed using FlowJo (BD Biosciences).

human CD3 = biological target: T4, human CD3 (human, UniProt P07766 23-207); assay: flow cytometry, primary human T cells
T4 construct: CD3 endogenously expressed on primary human T cells (whole TCR/CD3 complex); also called human CD3 (epsilon)
Protocol: as §1, with “Data were processed using FlowJo (BD Biosciences).” left out

human CD30 [4] = biological target: T2, human CD30; assay: flow cytometry, L-1236 cells
human CD30 [5] = biological target: T2, human CD30; assay: flow cytometry, HH cells
Protocol: Cells (3×10⁴ cells/well) were incubated in polystyrene 96-well round-bottom plates (Greiner bio-one, cat. no. 650180) with serial dilutions of antibodies (range 0.0046 to 10 μg/mL in 3-fold dilution steps) in 50 μL staining buffer at 4° C. for 30 min. After washing twice in staining buffer, cells were incubated with 50 μL secondary antibody at 4° C. for 30 min. […] Next, cells were washed twice in staining buffer, resuspended in 100 μL staining buffer supplemented with TO-PRO-3 iodide (Thermo Fisher Scientific; cat. no. T3605; 1:8000 dilution) and analyzed on a FACSCelesta flow cytometer (BD Biosciences, USA). Live cells were gated based on FSC/SSC and absence of TOPRO-3 staining. Binding curves were analyzed by non-linear regression of log-transformed data (sigmoidal dose-response with variable slope, four parameters) using GraphPad Prism V7.02 software (GraphPad Software, San Diego, CA, USA).

human CD30 [6] = biological target: T2, human CD30; assay: flow cytometry, DL-40 cells
human CD30 [7] = biological target: T2, human CD30; assay: flow cytometry, L-540 cells
human CD30 [8] = biological target: T2, human CD30; assay: flow cytometry, L-82 cells
human CD30 [9] = biological target: T2, human CD30; assay: flow cytometry, SR-786 cells
human CD30 [10] = biological target: T2, human CD30; assay: flow cytometry, KM-H2 cells
human CD30 [11] = biological target: T2, human CD30; assay: flow cytometry, JVM-2 cells
human CD30 [12] = biological target: T2, human CD30; assay: flow cytometry, NCEB-1 cells
human CD30 [13] = biological target: T2, human CD30; assay: flow cytometry, SUP-M2 cells

T4 sequence (P07766 23-207 limits assumed): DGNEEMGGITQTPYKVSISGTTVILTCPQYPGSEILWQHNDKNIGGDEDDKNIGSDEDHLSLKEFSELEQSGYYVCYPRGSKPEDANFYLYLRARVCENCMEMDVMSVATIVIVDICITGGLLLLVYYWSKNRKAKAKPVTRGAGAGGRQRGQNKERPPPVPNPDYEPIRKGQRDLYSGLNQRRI
T3 sequence (Q95LI5 22-198): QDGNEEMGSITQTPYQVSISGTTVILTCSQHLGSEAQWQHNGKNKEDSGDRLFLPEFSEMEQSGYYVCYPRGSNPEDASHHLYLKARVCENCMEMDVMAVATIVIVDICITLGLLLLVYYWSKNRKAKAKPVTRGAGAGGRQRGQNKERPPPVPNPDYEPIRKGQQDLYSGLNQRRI

B1: bsG1-huCD3-H101G-FEALxCD30-MDX060-FEAR (bispecific antibody, human IgG1, kappa, lambda)
heavy 1: not shown
light 1: not shown
heavy 2: QVQLQQWGAGLLKPSETLSLTCAVYGGSFSAYYWSWIRQPPGKGLEWIGDINHGGGTNYNPSLKSRVTISVDTSKNQFSLKLNSVTAADTAVYYCASLTAYWGQGSLVTVSSASTKGPSVFPLAPSSKSTSGGTAALGCLVKDYFPEPVTVSWNSGALTSGVHTFPAVLQSSGLYSLSSVVTVPSSSLGTQTYICNVNHKPSNTKVDKRVEPKSCDKTHTCPPCPAPEFEGGPSVFLFPPKPKDTLMISRTPEVTCVVVAVSHEDPEVKFNWYVDGVEVHNAKTKPREEQYNSTYRVVSVLTVLHQDWLNGKEYKCKVSNKALPAPIEKTISKAKGQPREPQVYTLPPSREEMTKNQVSLTCLVKGFYPSDIAVEWESNGQPENNYKTTPPVLDSDGSFFLYSRLTVDKSRWQQGNVFSCSVMHEALHNHYTQKSLSLSPG
light 2: DIQMTQSPTSLSASVGDRVTITCRASQGISSWLTWYQQKPEKAPKSLIYAASSLQSGVPSRFSGSGSGTDFTLTISSLQPEDFATYYCQQYDSYPITFGQGTRLEIKRTVAAPSVFIFPPSDEQLKSGTASVVCLLNNFYPREAKVQWKVDNALQSGNSQESVTEQDSKDSTYSLSSTLTLSKADYEKHKVYACEVTHQGLSSPVTKSFNRGEC
notes: Variant of m7 whose CD3 arm carries H101G
[1]
  binding result: binds
Human CD30 [2]
  binding result: binds

B2: IgG1-CD30-MDX060-FEAR (antibody)
heavy: B1 heavy 2
light: B1 light 2
notes: Monospecific, bivalent parental antibody; also called IgG1-MDX060-FEAR
[1]
  binding result: binds
Human CD30 [3]
  EC50 (read off the curve): ~0.2 µg/mL
Cynomolgus monkey CD3
  binding result: no binding (tested: 10 ug/mL)
Human CD3
  binding result: no binding (tested: 10 ug/mL)

B3: bsG1-b12-FEALxCD30-MDX060-FERR (bispecific antibody, human IgG1, kappa)
heavy 1: QVQLVQSGAEVKKPGASVKVSCQASGYRFSNFVIHWVRQAPGQRFEWMGWINPYNGNKEFSAKFQDRVTFTADTSANTAYMELRSLRSADTAVYYCARVGPYSWDDSPQDNYYMDVWGKGTTVIVSSASTKGPSVFPLAPSSKSTSGGTAALGCLVKDYFPEPVTVSWNSGALTSGVHTFPAVLQSSGLYSLSSVVTVPSSSLGTQTYICNVNHKPSNTKVDKRVEPKSCDKTHTCPPCPAPEFEGGPSVFLFPPKPKDTLMISRTPEVTCVVVAVSHEDPEVKFNWYVDGVEVHNAKTKPREEQYNSTYRVVSVLTVLHQDWLNGKEYKCKVSNKALPAPIEKTISKAKGQPREPQVYTLPPSREEMTKNQVSLTCLVKGFYPSDIAVEWESNGQPENNYKTTPPVLDSDGSFLLYSKLTVDKSRWQQGNVFSCSVMHEALHNHYTQKSLSLSPG
light 1: EIVLTQSPGTLSLSPGERATFSCRSSHSIRSRRVAWYQHKPGQAPRLVIHGVSNRASGISDRFSGSGSGTDFTLTITRVEPEDFALYYCQVYGASSYTFGQGTKLERKRTVAAPSVFIFPPSDEQLKSGTASVVCLLNNFYPREAKVQWKVDNALQSGNSQESVTEQDSKDSTYSLSSTLTLSKADYEKHKVYACEVTHQGLSSPVTKSFNRGEC
heavy 2: B1 heavy 2 with G231R, A260D
light 2: B1 light 2
notes: Monovalent CD30 control antibody
Human CD30 [4]
  EC50 (read off the curve): ~0.2 µg/mL
Human CD30 [5]
  EC50 (read off the curve): ~0.4 µg/mL
Human CD30 [6]
  EC50 (read off the curve): ~0.3 µg/mL
Human CD30 [7]
  EC50 (read off the curve): ~0.5 µg/mL
Human CD30 [8]
  EC50 (read off the curve): ~0.2 µg/mL
Human CD30 [9]
  EC50 (read off the curve): ~0.3 µg/mL
Human CD30 [10]
  EC50 (read off the curve): ~0.1 µg/mL
Human CD30 [11]
  EC50 (read off the curve): ~0.1 µg/mL
Human CD30 [12]
  EC50 (read off the curve): ~0.2 µg/mL
Human CD30 [13]
  EC50 (read off the curve): ~0.2 µg/mL
